# Data from US20090286723A1.
# Key:
# [1] = target: neuropeptide Y2 receptor (SK-N-BE cell membranes) (UniProt P49146); experiment: [125I]-human PYY displacement, SK-N-BE membranes
# [2] = target: calcitonin receptor; experiment: calcitonin receptor binding assay
# [3] = target: calcitonin receptor; experiment: cell-based or functional assay
# neuropeptide Y2 receptor (SK-N-BE cell membranes), sequence (P49146 whole entry): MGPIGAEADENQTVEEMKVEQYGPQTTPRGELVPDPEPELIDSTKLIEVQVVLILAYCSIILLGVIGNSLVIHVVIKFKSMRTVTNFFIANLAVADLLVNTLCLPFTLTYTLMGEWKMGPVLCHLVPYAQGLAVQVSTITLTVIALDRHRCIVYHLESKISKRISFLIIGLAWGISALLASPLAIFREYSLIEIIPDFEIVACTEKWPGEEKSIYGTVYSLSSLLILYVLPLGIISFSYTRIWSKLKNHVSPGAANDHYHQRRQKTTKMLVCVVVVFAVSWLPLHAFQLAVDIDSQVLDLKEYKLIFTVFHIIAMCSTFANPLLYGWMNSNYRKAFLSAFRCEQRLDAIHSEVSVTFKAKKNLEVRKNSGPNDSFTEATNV
Receptor Binding [1],Receptor Binding [2],Receptor Activation: CT cyclase [3],Substance
0.8,,,"[#Cys-Gly-Gly-PYY (3-36), amide] [Asp(#)-Pro-Pro-Pro-Pro-Pro-Pro-PYY (3-36), amide] (peptide; modification not given)"
0.8,,,"[#Cys-Gly-Gly-PYY (3-36), amide] [Asp(#)-miniPEG3-Gly-PYY (3-36), amide] (peptide; modification not given)"
,643,2270,"[#NH-Cys-(bAla)-PYY-(3-36), amide] [#Suc-(bAla)-PYY-(3-36), amide] (peptide)"
0.2,,,"[Ac-alpha-MSH-bAla-bAla-PYY-(3-36), amide] (peptide; modification not given)"
0.8,,,"[Asp(#)-miniPEG-Gly-PYY (3-36), amide] [#Cys-Gly-Gly-PYY (3-36), amide] (peptide; modification not given)"
